Laboratory results published in PMC10590398, “Hfq C-terminal region forms a β-rich amyloid-like motif without perturbing the N-terminal Sm-like structure” (Communications Biology, 2023).

Assays:
[1] = biological target: the molecule itself; assay: ATR-FTIR; assembled Hfq CTR at 20 mg/mL in D2O, the amyloid state at the start of the lipid experiment
[2] = biological target: the molecule itself; assay: X-ray fibre diffraction; Hfq11 filaments assembled in water, seen as bundles of approx. 20 nm fibers by TEM; powder diffraction at 270 K, Cu Kα, washed by centrifugation; reflections at 4.6 Å and 7.8–8 Å (cross-β)

B1: Hfq 38-residue C-terminal region peptide (peptide)
peptide: SRPVSHHSNNAGGGTSSNYHHGSSAQNTSAQQDSEETE
notes: Hfq (host factor 1), E. coli, C-terminal region; The lipid experiment names its sample only 'assembled Hfq CTR'; also called Hfq 38-residues; Hfq CTR; source: synthetic peptide (Proteogenix), assembled at 4 °C at 20 mg/mL for >1 month (D2O for FTIR)
B1: binds [1].

B2: Hfq11, minimal 11-residue C-terminal assembling motif of E. coli Hfq (Hfq_(87-97)) (peptide)
peptide: SAQNTSAQQDS
notes: Hfq (host factor 1), E. coli, C-terminal region; Unlabelled synthetic peptide, studied as assembled filaments; also called Hfq 11-residues; 11-residue C-terminal Hfq peptide; source: synthetic peptide (Proteogenix), assembled in water at 4 °C at 20 mg/mL for >1 month
B2: binds [2].
